Molecular target: T1, Af-PARP1 ΔBRCT (Aspergillus fumigatus, UniProt B0Y3N8 196-688)
T1 sequence: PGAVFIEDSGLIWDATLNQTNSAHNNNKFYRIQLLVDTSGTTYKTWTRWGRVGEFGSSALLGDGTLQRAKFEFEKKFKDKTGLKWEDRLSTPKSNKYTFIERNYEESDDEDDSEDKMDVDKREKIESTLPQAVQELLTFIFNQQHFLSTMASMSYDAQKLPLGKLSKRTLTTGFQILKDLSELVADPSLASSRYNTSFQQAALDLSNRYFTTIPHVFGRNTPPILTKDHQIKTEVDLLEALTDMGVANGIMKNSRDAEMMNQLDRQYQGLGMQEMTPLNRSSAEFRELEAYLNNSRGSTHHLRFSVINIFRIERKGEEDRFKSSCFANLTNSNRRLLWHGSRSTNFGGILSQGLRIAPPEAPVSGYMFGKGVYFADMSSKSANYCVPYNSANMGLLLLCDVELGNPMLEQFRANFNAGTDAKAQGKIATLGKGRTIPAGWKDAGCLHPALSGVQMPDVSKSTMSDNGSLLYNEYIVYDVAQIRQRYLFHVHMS
Assay: EMSA; similar apparent strength to WT in titration; EMSA: 50 mM HEPES pH 8, 100 mM NaCl, 10% glycerol, 10 mM DTT, 45 min at 4 °C, 7% native PAGE 0.5x TBE; plasmid EMSA: 20 mM Tris-HCl pH 8, 30 mM NaCl, 1 mM EDTA, 1 mM DTT; CD: 20 mM HEPES pH 8, 100 mM NaCl, 0.5 mM TCEP, 2% glycerol
Conditions: protein: recombinant; tags: N-terminal His (HRV3C-cleavable; removed for SAXS/CD); dumbbell of two hairpins, nick

## CGGTCGATCGTAAGATCGACCGGCGCTGGAGCTTGCTCCAGCGC (structured_DNA, 5'-phosphate) [DNA-1 (5'P nick)]
  binding result: binds

From publication PMC13507078, “The BRCT domain enhances DNA binding and catalytic efficiency of fungal PARPs”
